As a reminder, the Kd is the free concentration of one partner at which half of the binding sites on the other are occupied at equilibrium, for simple one-to-one binding.

We go through twelve molecules from patent US20100055103A1 (published 2010).

What all share (assay): BIAcore
(In general: Surface plasmon resonance follows binding to a sensor surface in real time, without labels.)

Assay [1] deals with T1, Recombinant human IL-17A/F heterodimer (UniProt Q16552 24-155; Q96PD4 31-163).
For assay [2], the target named is T2, Human IL-17F (R&D Systems, cat #1335-IL-025/CF) (UniProt Q96PD4 31-163).
T2 chain: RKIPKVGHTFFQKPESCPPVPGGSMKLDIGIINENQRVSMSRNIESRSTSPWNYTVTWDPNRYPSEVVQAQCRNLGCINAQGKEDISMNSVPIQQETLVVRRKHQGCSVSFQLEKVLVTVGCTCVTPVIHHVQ

In assay [3] the target is T3, Human IL-17A (R&D Systems, cat #317-IL-050/CF) (UniProt Q16552 20-155).
T3 sequence (Q16552 20-155): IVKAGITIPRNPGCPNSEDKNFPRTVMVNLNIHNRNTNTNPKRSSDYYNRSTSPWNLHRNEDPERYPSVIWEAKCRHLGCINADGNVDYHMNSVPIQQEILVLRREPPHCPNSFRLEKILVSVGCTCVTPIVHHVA
In assay [4] the target is cyno IL17F.
The target of assay [5] is cyno IL17F. The source holds these as a separate data set.
Assay [6] concerns the target T1, Recombinant human IL-17A/F heterodimer. The source holds these as a separate data set.
For assay [7], the target named is T2, Human IL-17F (R&D Systems, cat …).
Assay [8] addresses T3, Human IL-17A (R&D Systems, cat …). This is another data set of the same source.
For the next assay, the target named is rhesus IL17A (PUR17200).
Assay [9] concerns the target T1, Recombinant human IL-17A/F heterodimer. This is another data set of the same source.
The target in assay [10] is T2, Human IL-17F (R&D Systems, cat …).
In assay [11] the target is T3, Human IL-17A (R&D Systems, cat …). This is another data set of the same source.
The target of a further assay is Bi-specific.
The target of assay [12] is T2, Human IL-17F (R&D Systems, cat …).

Read-outs that look alike come from different tables or passages of the source.

B1: YW278.15.9 (antibody, V domains shown)
VH: EVQLVESGGGLVQPGGSLRLSCAASGFTFTDYDISWVRQAPGKGLEWVASIDPYEGYTYYADSVKGRFTISADTSKNTAYLQMNSLRAEDTAVYYCARYLYWSYVMDYWGQGTLVTVSS
VL: DIQMTQSPSSLSASVGDRVTITCRASQDVSTAVAWYQQKPGKAPKLLIYSASFLYSGVPSRFSGSGSGTDFTLTISSLQPEDFATYYCQQSQNPQTTFGQGTKVEIKR
B1: the equilibrium dissociation constant (Kd) amounted to 0.0229 nM in assay [1], 0.0181 nM in assay [2] and 0.0155 nM in [3].

B2: YW278.15.18 (antibody, V domains shown)
VH: EVQLVESGGGLVQPGGSLRLSCAASGFTFTDYDISWVRQAPGKGLEWVASISPPDCYTYYADSVKGRFTISADTSKNTAYLQMNSLRAEDTAVYYCARYLYWSYVMDYWGQGTLVTVSS
VL: DIQMTQSPSSLSASVGDRVTITCRASQDVSTAVAWYQQKPGKAPKLLIYSASFLYSGVPSRFSGSGSGTDFTLTISSLQPEDFATYYCQQSYTAKLTFGQGTKVEIKR
As to B2, the dissociation constant (Kd) in the assay with cyno IL17F [4] was 0.0861 nM; with cyno IL17F [5], 0.0632 nM; in assay [6], 0.0225 nM; in assay [7] it was 0.0291 nM; in assay [8] it was 0.0189 nM; in the assay with rhesus IL17A (PUR17200), 0.0381 nM. Moreover, the figures for the Kd in assay [9], in assay [10] and in assay [11] were 0.014 nM, 0.0135 nM and 0.0137 nM, respectively.

B3: YW278.15.3 (antibody, V domains shown)
VH: EVQLVESGGGLVQPGGSLRLSCAASGFTFTDYDISWVRQAPGKGLEWVASISPSDGYTYYADSVKGRFTISADTSKNTAYLQMNSLRAEDTAVYYCARYLYWSYVMDYWGQGTLVTVSS
VL: DIQMTQSPSSLSASVGDRVTITCRASQVISSSLAWYQQKPGKAPKLLIYGASFFYSGVPSRFSGSGSGTDFTLTISSLQPEDFATYYCQQHNDLPLTFGQGTKVEIKR
Regarding B3, the Kd in assay [1] turned out to be 0.0935 nM; in assay [2], 0.115 nM; in assay [3], 0.0242 nM; in assay [9] it was 0.0167 nM; in assay [10], 0.0283 nM; in assay [11], 0.0152 nM.

B4: YW278.15.18.C55A (antibody, V domains shown)
VH: EVQLVESGGGLVQPGGSLRLSCAASGFTFTDYDISWVRQAPGKGLEWVASISPPDAYTYYADSVKGRFTISADTSKNTAYLQMNSLRAEDTAVYYCARYLYWSYVMDYWGQGTLVTVSS
VL: DIQMTQSPSSLSASVGDRVTITCRASQDVSTAVAWYQQKPGKAPKLLIYSASFLYSGVPSRFSGSGSGTDFTLTISSLQPEDFATYYCQQSYTAKLTFGQGTKVEIKR
Consider B4, for which the dissociation constant (Kd) in assay [7] came to 0.0186 nM.

B5: YW278.15.18.C55S (antibody, V domains shown)
VH: EVQLVESGGGLVQPGGSLRLSCAASGFTFTDYDISWVRQAPGKGLEWVASISPPDSYTYYADSVKGRFTISADTSKNTAYLQMNSLRAEDTAVYYCARYLYWSYVMDYWGQGTLVTVSS
VL: DIQMTQSPSSLSASVGDRVTITCRASQDVSTAVAWYQQKPGKAPKLLIYSASFLYSGVPSRFSGSGSGTDFTLTISSLQPEDFATYYCQQSYTAKLTFGQGTKVEIKR
B5 returned a dissociation constant Kd in assay [7] of 0.019 nM.

B6: YW278.15.2.D54E (antibody, V domains shown)
VH: EVQLVESGGGLVQPGGSLRLSCAASGFSFIDYDISWVRQAPGKGLEWVASISPYEGYTYYADSVKGRFTISADTSKNTAYLQMNSLRAEDTAVYYCARYLYWSYVMDYWGQGTLVTVSS
VL: DIQMTQSPSSLSASVGDRVTITCRASQDVSTAVAWYQQKPGKAPKLLIYSASFLYSGVPSRFSGSGSGTDFTLTISSLQPEDFATYYCQQYYIYPATFGQGTKVEIKR
B6 displayed a Kd in assay [2] of 0.012 nM.

B7: YW278.15.2 (antibody, V domains shown)
VH: EVQLVESGGGLVQPGGSLRLSCAASGFSFIDYDISWVRQAPGKGLEWVASISPYDGYTYYADSVKGRFTISADTSKNTAYLQMNSLRAEDTAVYYCARYLYWSYVMDYWGQGTLVTVSS
VL: DIQMTQSPSSLSASVGDRVTITCRASQDVSTAVAWYQQKPGKAPKLLIYSASFLYSGVPSRFSGSGSGTDFTLTISSLQPEDFATYYCQQYYIYPATFGQGTKVEIKR
Consider B7, for which the Kd with cyno IL17F [5] came out at 0.209 nM; in assay [9], 0.0104 nM; in [10], 0.0315 nM; in [11], 0.0111 nM.

B8: IL17F (ligand)
chain: RKIPKVGHTFFQKPESCPPVPGGSMKLDIGIINENQRVSMSRNIESRSTSPWNYTVTWDPNRYPSEVVQAQCRNLGCINAQGKEDISMNSVPIQQETLVVRRKHQGCSVSFQLEKVLVTVGCTCVTPVIHHVQ
The molecule B8 returned a Kd with Bi-specific of 0.71 nM.

B9: YW279.1.20 (antibody, V domains shown)
VH: EVQLVESGGGLVQPGGSLRLSCAASGFSFTSYMMSWVRQAPGKGLEWVSTIYPESGATDYADSVKGRFTISADTSKNTAYLQMNSLRAEDTAVYYCAREGYYYSTSIKYYPWFDYWGQGTLVTVSS
VL: DIQMTQSPSSLSASVGDRVTITCRASQRIKRYLAWYQQKPGKAPKLLIYGASSRASGVPSRFSGSGSGTDFTLTISSLQPEDFATYYCQQRFSQHITFGQGTKVEIKR
In assay [2], B9 had a dissociation constant Kd of 1.59 nM.

B10: YW279.1.22 (antibody, V domains shown)
VH: EVQLVESGGGLVQPGGSLRLSCAASGFSFPSYFISWVRQAPGKGLEWVSMIYPVSGATVYADSVKGRFTISADTSKNTAYLQMNSLRAEDTAVYYCAREGYYYSTSIKYYPWFDYWGQGTLVTVSS
VL: DIQMTQSPSSLSASVGDRVTITCRASQSISSYLAWYQQKPGKAPKLLIYGASSRASGVPSRFSGSGSGTDFTLTISSLQPEDFATYYCQQRYSLPITFGQGTKVEIKR
On to B10, for which the Kd stood at 0.69 nM in assay [1], 1.76 nM in assay [2] and 0.118 nM in assay [3].

B11: YW279.1.21 (antibody, V domains shown)
VH: EVQLVESGGGLVQPGGSLRLSCAASGFSFTSYMMSWVRQAPGKGLEWVSTIYPESGATDYADSVKGRFTISADTSKNTAYLQMNSLRAEDTAVYYCAREGYYYSTSIKYYPWFDYWGQGTLVTVSS
VL: DIQMTQSPSSLSASVGDRVTITCRASQSISSYLAWYQQKPGKAPKLLIYGASSRASGVPSRFSGSGSGTDFTLTISSLQPEDFATYYCQQRYSWHTTFGQGTKVEIKR
B11: the dissociation constant (Kd) in assay [1] was 11.8 nM; in assay [2], 0.0823 nM; in [3] it was 5.09 nM.

B12: YW265.01 (antibody, V domains shown)
VL: DIQMTQSPSSLSASVGDRVTITCRASQSISSYLAWYQQKPGKAPKLLIYGASSRASGVPSRFSGSGSGTDFTLTISSLQPEDFATYYCQQYYSSPLTFGQGTKVEIKR
VH: EVQLVESGGGLVQPGGSLRLSCAASGYSFTSPYISWVRQAPGKGLEWVASIFYYSGATDYADSVKGRFTISADTSKNTAYLQMNSLRAEDTAVYYCARGGYGYNQWFYSIYQSYFDYWGQ
Take B12: binding in assay [12] was put at a Kd of 0.62 nM.
